From US20250288643A1 (FBD BIOLOGICS, published 2025)
Where a chain is given by its changes, count along the chain named. Read-outs that look alike come from different tables or passages of the source. Values belong to the binder of their own block, whether it stands above or below them.

Key:
mouse CD47 = target: T1, mouse CD47 (mouse, UniProt Q61735 19-140, limits assumed); experiment: ELISA, coated mouse CD47 ECD Fc, supernatant, anti-c-Myc HRP
T1 sequence (looked up): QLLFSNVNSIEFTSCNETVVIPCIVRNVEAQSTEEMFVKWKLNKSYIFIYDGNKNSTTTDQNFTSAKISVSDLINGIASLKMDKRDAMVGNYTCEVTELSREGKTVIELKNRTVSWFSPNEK
Description: 100 μl of the collected supernatant was added to the ELISA plates and incubated at 25° C. for 1 hour. After the incubation, goat anti-c-Myc HRP with a dilution ratio of 1:10000 was added to the plate, and TMB was added for color development. The absorbance value at 450 nm was measured using a Varioskan™ LUX plate reader.

human CD47 (hCD47) [1] = target: T2, human CD47 (hCD47) (human, UniProt Q08722 19-139, limits assumed); experiment: blocking ELISA, coated hCD47 ECD Fc, supernatant + biotin-SIRPα ECD His
T2 sequence (Q08722 19-139 limits assumed): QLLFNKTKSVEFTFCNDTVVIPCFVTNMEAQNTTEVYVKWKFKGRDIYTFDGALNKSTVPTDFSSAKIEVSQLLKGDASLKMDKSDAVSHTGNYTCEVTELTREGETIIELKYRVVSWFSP
Description: (§1) 150 μl of the collected supernatant and 20 μl biotin-labeled SIRPα ECD His protein (final concentration: 2.5 μg/ml) were added to the ELISA plates and incubated at 25° C. for 1 hour. After the incubation, avidin HRP (BioLegend, Cat #: 79004) with a dilution ratio of 1:1000 was added to the plate, and TMB was added for color development. The absorbance value at 450 nm was measured using a Varioskan™ LUX plate reader.

human CD47 (hCD47) [2] = target: T2, human CD47 (hCD47); experiment: hCD47 binding OD over expression OD
Description: (§2) 30 μl of the collected supernatant was added to the ELISA plates and incubated at 25° C. for 1 hour. After the incubation, goat anti-c-Myc HRP with a dilution ratio of 1:10000 was added to the plate, and TMB was added for color development. The absorbance value at 450 nm was measured using a Varioskan™ LUX plate reader.

human CD47 (hCD47) [3] = target: T2, human CD47 (hCD47); experiment: ELISA, coated hCD47 ECD Fc, supernatant, anti-c-Myc HRP
Description: as §2

human CD47 (hCD47) [4] = target: T2, human CD47 (hCD47); experiment: as above; remark: listed apart in the source
Description: as §2

human CD47 (hCD47) [5] = target: T2, human CD47 (hCD47); experiment: blocking ELISA, coated hCD47 ECD Fc, supernatant + biotin-SIRPα ECD His; remark: listed apart in the source
Description: as §1

human CD47 (hCD47) [6] = target: T2, human CD47 (hCD47); experiment: hCD47 binding OD over expression OD; remark: listed apart in the source
Description: as §2

B1: 4RP13-3-11A (designed binder)
hSIRPα IgV domain mutant: EEELQVIQPDKSVSVAAGESAILHCTVTSLWPVGPIQWFRGAGPARELIYNQKAWPFPRVTTVSESTKRENMDFSISISNITPADAGTYYCVKFRKGSPDTEFKSGAGTELSVRAKPS
notes: tested as bacterial supernatant; also called S-2; hSIRPα-mt3 (IgV domain)
mCD47 binding (OD) (mouse CD47): 0.348 OD
Blocking (OD) (human CD47 (hCD47) [1]): 0.319 OD
Blocking ability (%) (human CD47 (hCD47) [1]): 93.3%
hCD47 binding (B/E) (human CD47 (hCD47) [2]): 1.53
hCD47 binding (OD) (human CD47 (hCD47) [3]): 1.67 OD

B2: 2R-1-7B (designed binder)
hSIRPα IgV domain mutant: B1 hSIRPα IgV domain mutant with T26I, W31I, A54I, W55L, P56T, M72Y
notes: tested as bacterial supernatant; also called hSIRPα-mt7 (IgV domain)
hCD47 binding (OD) (human CD47 (hCD47) [4]): 0.687 OD
Blocking (OD) (human CD47 (hCD47) [5]): 1.43 OD
Blocking ability (%) (human CD47 (hCD47) [5]): 23.3%
hCD47 binding (B/E) (human CD47 (hCD47) [6]): 0.78

B4: 2RP-1-3E (designed binder)
hSIRPα IgV domain mutant: B1 hSIRPα IgV domain mutant with H24T, A54G, W55Q, P56N, E70F
notes: tested as bacterial supernatant; also called S-7; hSIRPα-mt9 (IgV domain)
Blocking (OD) (human CD47 (hCD47) [1]): 0.131 OD
Blocking ability (%) (human CD47 (hCD47) [1]): 99.9%
hCD47 binding (B/E) (human CD47 (hCD47) [2]): 1.61
hCD47 binding (OD) (human CD47 (hCD47) [3]): 1.72 OD

B6: 2R-1-10B (designed binder)
hSIRPα IgV domain mutant: B1 hSIRPα IgV domain mutant with W31I, A54N, W55L, P56I, T67G
notes: tested as bacterial supernatant; also called hSIRPα-mt6 (IgV domain)
hCD47 binding (OD) (human CD47 (hCD47) [4]): 0.51 OD
Blocking (OD) (human CD47 (hCD47) [5]): 1.37 OD
Blocking ability (%) (human CD47 (hCD47) [5]): 27.2%
hCD47 binding (B/E) (human CD47 (hCD47) [6]): 0.46

B7: 2R-1-4B (designed binder)
hSIRPα IgV domain mutant: B1 hSIRPα IgV domain mutant with W31A, A54L, W55D, P56S, N71S
notes: tested as bacterial supernatant; also called hSIRPα-mt14 (IgV domain)
hCD47 binding (OD) (human CD47 (hCD47) [4]): 0.946 OD
Blocking (OD) (human CD47 (hCD47) [5]): 1.36 OD
Blocking ability (%) (human CD47 (hCD47) [5]): 27.9%
hCD47 binding (B/E) (human CD47 (hCD47) [6]): 0.77

Further lines, results first:

Blocking (OD) (human CD47 (hCD47) [1]): 0.229 OD
Blocking ability (%) (human CD47 (hCD47) [1]): 99.8%
hCD47 binding (B/E) (human CD47 (hCD47) [2]): 1.7
hCD47 binding (OD) (human CD47 (hCD47) [3]): 1.79 OD
B3: 4RP13-3-4D (designed binder)
hSIRPα IgV domain mutant: B1 hSIRPα IgV domain mutant with W31L, A54S, W55K, P56V, E70R
notes: tested as bacterial supernatant; also called S-11; hSIRPα-mt11 (IgV domain)

mCD47 binding (OD) (mouse CD47): 0.412 OD
Blocking (OD) (human CD47 (hCD47) [1]): 0.194 OD
Blocking ability (%) (human CD47 (hCD47) [1]): 96.9%
hCD47 binding (B/E) (human CD47 (hCD47) [2]): 2.27
hCD47 binding (OD) (human CD47 (hCD47) [3]): 1.94 OD
B5: 4RP13-1-2G (designed binder)
hSIRPα IgV domain mutant: B1 hSIRPα IgV domain mutant with H24R, W55F, P56I, E70G
notes: tested as bacterial supernatant; also called S-5; hSIRPα-mt4 (IgV domain)

Blocking (OD) (human CD47 (hCD47) [1]): 0.299 OD
Blocking ability (%) (human CD47 (hCD47) [1]): 94.7%
hCD47 binding (B/E) (human CD47 (hCD47) [2]): 1.33
hCD47 binding (OD) (human CD47 (hCD47) [3]): 1.65 OD
B8: 4RP13-3-10B (designed binder)
hSIRPα IgV domain mutant: B1 hSIRPα IgV domain mutant with W31Y, A54G, W55R, P56R, E70A
notes: tested as bacterial supernatant; also called S-26; hSIRPα-mt12 (IgV domain)

hCD47 binding (OD) (human CD47 (hCD47) [4]): 1.49 OD
Blocking (OD) (human CD47 (hCD47) [5]): 0.332 OD
Blocking ability (%) (human CD47 (hCD47) [5]): 92.4%
Blocking (OD) (human CD47 (hCD47) [1]): 0.332 OD
Blocking ability (%) (human CD47 (hCD47) [1]): 92.4%
hCD47 binding (B/E) (human CD47 (hCD47) [6]): 1.25
hCD47 binding (B/E) (human CD47 (hCD47) [2]): 1.25
hCD47 binding (OD) (human CD47 (hCD47) [3]): 1.49 OD
B9: 4RP13-3-7B (designed binder)
hSIRPα IgV domain mutant: B1 hSIRPα IgV domain mutant with H24T, W31Y, A54R, W55Q, P56T, E70F
notes: tested as bacterial supernatant; also called S-28; hSIRPα-mt10 (IgV domain)

Blocking (OD) (human CD47 (hCD47) [1]): 0.21 OD
Blocking ability (%) (human CD47 (hCD47) [1]): 96.3%
hCD47 binding (B/E) (human CD47 (hCD47) [2]): 1.65
hCD47 binding (OD) (human CD47 (hCD47) [3]): 1.86 OD
B10: 4RP13-4-5C (designed binder)
hSIRPα IgV domain mutant: B1 hSIRPα IgV domain mutant with H24N, W31I, A54H, W55Q, P56T, S66Q, M72R
notes: tested as bacterial supernatant; also called S-21; hSIRPα-mt5 (IgV domain)

hCD47 binding (OD) (human CD47 (hCD47) [4]): 1.87 OD
mCD47 binding (OD) (mouse CD47): 0.41 OD
Blocking (OD) (human CD47 (hCD47) [5]): 0.45 OD
Blocking ability (%) (human CD47 (hCD47) [5]): 80.1%
Blocking (OD) (human CD47 (hCD47) [1]): 0.45 OD
Blocking ability (%) (human CD47 (hCD47) [1]): 80.1%
hCD47 binding (B/E) (human CD47 (hCD47) [6]): 2.89
hCD47 binding (B/E) (human CD47 (hCD47) [2]): 2.89
hCD47 binding (OD) (human CD47 (hCD47) [3]): 1.87 OD
B11: 4RP6-1-10A (designed binder)
hSIRPα IgV domain mutant: B1 hSIRPα IgV domain mutant with W31L, A54D, W55F, P56L, M72R
notes: tested as bacterial supernatant; also called S-16; hSIRPα-mt13 (IgV domain)

hCD47 binding (OD) (human CD47 (hCD47) [4]): 1.65 OD
Blocking (OD) (human CD47 (hCD47) [5]): 1.11 OD
Blocking ability (%) (human CD47 (hCD47) [5]): 46.3%
hCD47 binding (B/E) (human CD47 (hCD47) [6]): 1.01
B12: 4RP13-5-6G (designed binder)
hSIRPα IgV domain mutant: B1 hSIRPα IgV domain mutant with H24R, W31T, W55K, P56Q, D73I
notes: tested as bacterial supernatant; also called hSIRPα-mt15 (IgV domain)

mCD47 binding (OD) (mouse CD47): 0.293 OD
Blocking (OD) (human CD47 (hCD47) [1]): 0.215 OD
Blocking ability (%) (human CD47 (hCD47) [1]): 95.8%
hCD47 binding (B/E) (human CD47 (hCD47) [2]): 2.44
hCD47 binding (OD) (human CD47 (hCD47) [3]): 1.9 OD
B13: 4RP13-1-7A (designed binder)
hSIRPα IgV domain mutant: B1 hSIRPα IgV domain mutant with W31K, A54R, W55D, P56T, M72R
notes: tested as bacterial supernatant; also called S-19; hSIRPα-mt8 (IgV domain)
